Source: article PMC11588662 (2024)

Target: CD33 Db-FM (fluorescein-maleimide-labelled anti-CD33 diabody, clone SGN-33) (fluorescein-5-maleimide on the engineered C-terminal cysteine (added after the hexahistidine tag))
Assay: SPR

Kd: 7 nM
B1: extracellular domain of CD33, His-tagged protein (domain or fragment)
chain: DPNFWLQVQESVTVQEGLCVLVPCTFFHPIPYYDKNSPVHGYWFREGAIISRDSPVATNKLDQEVQEETQGRFRLLGDPSRNNCSLSIVDARRRDNGSYFFRMERGSTKYSYKSPQLSVHVTDLTHRPKILIPGTLEPGHSKNLTCSVSWACEQGTPPIFSWLSAAPTSLGPRTTHSSVLIITPRPQDHGTNLTCQVKFAGAGVTTERTIQLNVTYVPQNPTTGIFPGDGSGKQETRAGVVH
